According to patent US11434299 (TENEOBIO, dated 2022):

Target: T1, human BCMA (B-Cell Maturation Antigen) on NCI-H929 cells (human, UniProt Q02223 1-184)
T1 construct: whole, on cells; Endogenous BCMA on NCI-H929 myeloma cells; also called TNFRSF17; H929 cells (BCMA+, lambda-)
T1 sequence (looked up): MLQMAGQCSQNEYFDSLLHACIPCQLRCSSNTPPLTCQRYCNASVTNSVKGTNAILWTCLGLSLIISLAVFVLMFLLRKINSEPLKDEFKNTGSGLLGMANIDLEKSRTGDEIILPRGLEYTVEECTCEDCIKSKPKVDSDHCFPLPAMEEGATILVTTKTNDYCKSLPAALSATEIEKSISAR
Test: flow cytometry, HEK supernatants on NCI-H929 cells (BCMA+)
Description: Supernatants of all antibodies were also tested by flow cytometry for binding to RPMI-8226 cells (BCMA+, lambda+) and H929 cells (BCMA+, lambda−). The samples were measured by flow cytometry using a Guava easyCyte 8HT instrument from EMD Millipore and analyzed using guavaSoft. Bound antibodies were detected with goat anti-human IgG F(ab')_2 conjugated to PE (Southern Biotech 2042-09). All antibodies were diluted in PBS with 1% BSA. Positive staining was determined by comparison to staining with a human IgG1 isotype control. The NCI-H929 and RPMI-8226 cell lines are human multiple myeloma lines expressing human BCMA, which were obtained from the American Type Culture Collection (ATCC) and cultured according to ATCC recommendations.

B1: SEQ ID NO 53 (antibody, V domains shown)
VH: EVQLLESGGGLVQPGGSLRLSCAASGFTFSNYAMNWVRQAPGKGLEWVSGIIGSGGSTYYADSVKGRFTISRDNSKNTLYLQMNSLRVEDTAVYYCVKDWNTTMITERGQGTLVTVSS
notes: UniAb: CH1 deleted, no light chain; HEK supernatant
  binding result: binds
